Test results published in patent US20240109974A1 (SHANDONG SIMCERE BIOPHARMACEUTICAL, published 2024).
Substitutions are numbered along the chain they refer to.

B1: 224-WT (antibody, V domains shown)
VH: EVQLQESGPEIVKPGASVKLSCTASGFNNKDIYMHWVKQRPEQGLEWIGRIDPATGNTKHDPKFQDKATLSSDTSSNTAYLQFSSLTSEDTAVYYCAHSPYGDFGAMDYWGQGTTVTVSS
VL: DIQMTQSPAIMSASLGERVTMTCTASSSVSSNYLHWYQQKPGSSPKLWIYSTSNLPSGVPARFSGSGSGTSYSLTISSMEAEDAATYYCHQYHRSPWTFGGGTKLEIK
notes: Human-murine chimeric wild-type molecule; also called human-murine chimeric antibody WT of #224
B2: 219-WT (antibody, V domains shown)
VH: EVQLQESGAELVRPGASVKLSCKASGYSFTNYWMNWVKQRPGQGLEWIGMIHPSDTETRLNQNFKDKATLTVDKSSSTSYMQLSSPTSEDSAVYYCARGEGLGAARSVSMDYWGQGTTVTVSS
VL: DILMTQSPSSLSASLGDRVTISCRASQDISNYLNWYQQKPDGTVKVLIYYTAILHSGVPSRFSGSGSGTDYSLTISNLEQEDIATYFCQQGNTLPWTFGGGTKLEIK
notes: Human-murine chimeric wild-type molecule
B3: 219-Hu3 (antibody, V domains shown)
VH: QVQLVQSGAEVKKPGSSVKVSCKASGYSFTNYWMNWVRQAPGQGLEWMGMIHPSDTETRLNQNFKDRVTITADKSTSTAYMELSSLRSEDTAVYYCARGEGLGAARSVSMDYWGQGTLVTVSS
VL: B2 VL with L3Q, L15V, S22T, V46L, N77S, E79Q, Q80P, I83F, G100Q, L104V
notes: also called VH5 + VL5
B4: 219-Hu2 (antibody, V domains shown)
VH: B3 VH with R67K, V68A
VL: B2 VL with L3Q, L15V, S22T, V46L, N77S, E79Q, Q80P, I83F, G100Q, L104V
notes: also called VH4 + VL5
B5: 219-Hu5 (antibody, V domains shown)
VH: B3 VH with A72V
VL: B2 VL with L3Q, L15V, S22T, V46L, N77S, E79Q, Q80P, I83F, G100Q, L104V
notes: also called VH7 + VL5
B6: 219-Hu1 (antibody, V domains shown)
VH: B3 VH with S16A, G44R, A72R, K74T, T76A
VL: B2 VL with L3Q, L15V, S22T, V46L, N77S, E79Q, Q80P, I83F, G100Q, L104V
notes: also called VH3 + VL5
B7: 219-Hu4 (antibody, V domains shown)
VH: B3 VH with R38K, M48I, R67K, V68A, I70L, A72V
VL: B2 VL with L3Q, L15V, S22T, V46L, N77S, E79Q, Q80P, I83F, G100Q, L104V
notes: also called VH6 + VL5
B8: 001-WT (antibody, V domains shown)
VH: EVQLQESGGGLVQPGGSLNLSCAASGFAFSTYDLSWVRQTPEKRLEWVAYINNGGISTYYSDTVKGRFTISRDNAKNTLYLQMSSLKSEDTAMYYCVRGPFYGSANYFDYWGQGTTVTVSS
VL: EIVMTQSPASLSLSVGETVTITCRTSESIYSNLPWYQQKQGKSPQLLVYDATKLAEGVPSRFSGSESGTQYSLKINSLQSEDFGTYYCQHFWVTPWTFGGGTKLEIK
notes: Human-murine chimeric wild-type molecule; also called human-murine chimeric antibody WT of #001
B9: 001-Hu5 (antibody, V domains shown)
VH: B8 VH with Q5V, N19R, T40A, E42G, R44G, S84N, K87R, S88A, M93V, T116L
VL: DIQMTQSPSSLSASVGDRVTITCRTSESIYSNLPWYQQKPGKSPKLLVYDATKLAEGVPSRFSGSGSGTDYTLTISSLQPEDFATYYCQHFWVTPWTFGQGTKVEIK
notes: Humanized form of #001; also called VH1 + VL4
B10: 001-Hu1 (antibody, V domains shown)
VH: B8 VH with Q5V, N19R, T40A, E42G, R44G, S84N, K87R, S88A, M93V, T116L
VL: B9 VL with S43A, V48L
notes: Humanized form of #001; also called VH1 + VL1
B11: 001-Hu3 (antibody, V domains shown)
VH: B8 VH with Q5V, N19R, T40A, E42G, R44G, S84N, K87R, S88A, M93V, T116L
VL: B9 VL with S43A, V48I
notes: Humanized form of #001; also called VH1 + VL3
B12: 001-Hu4 (antibody, V domains shown)
VH: EVQLVESGGGLVQPGGSLRLSCAASGFAFSTYDLSWVRQAPGKGLEWVAYINNGGISTYYSDTVKGRFTISRDNAKNSLYLQMNSLRAEDTAVYYCVRGPFYGSANYFDYWGQGTLVTVSS
VL: B9 VL
notes: Humanized form of #001; also called VH2 + VL4
B13: 001-Hu2 (antibody, V domains shown)
VH: B12 VH
VL: B9 VL with V48I, Y71F
notes: Humanized form of #001; also called VH2 + VL2

Tests used:
[1] = biological target: T1, Cynomolgus TNFR2-His (Sino 90102-C08H) (cynomolgus monkey, UniProt A0A2K5VET2 132-366); assay: SPR (Biacore T200), antibody captured on Protein A chip
T1 construct: Bought protein; also called cynomolgus monkey TNFR2; recombinant cynomolgus monkey TNFR2 protein; not shown: His tag
T1 sequence: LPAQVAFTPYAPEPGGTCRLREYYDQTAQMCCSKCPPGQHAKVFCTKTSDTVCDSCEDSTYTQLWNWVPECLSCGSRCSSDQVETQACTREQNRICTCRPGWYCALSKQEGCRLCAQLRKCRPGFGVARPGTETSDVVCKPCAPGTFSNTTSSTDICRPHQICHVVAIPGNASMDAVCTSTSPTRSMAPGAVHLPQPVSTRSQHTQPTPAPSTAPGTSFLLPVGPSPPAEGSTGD
Protocol: (§1) Biacore was used to detect the specific binding of a test anti-TNFR2 antibody to human and cynomolgus monkey TNFR2 proteins. In this experiment, a Protein A chip was used, the time required for the chip to capture the diluted antibody was determined by manual run, so that the Rmax of the saturated binding to an antigen was 50 RU. […] The affinity of an antibody for an antigen was determined by using multi-cycle dynamics. In each cycle, an antibody was injected and then a TNFR2 protein at a gradient concentration was injected, so that the antigen and the antibody underwent binding and dissociation processes. After each cycle, the Protein A chip was regenerated with Glycine pH 1.5 (removing the protein on the chip). The affinity KD of an antibody and an antigen was fitted with BIAcore T200 analysis software.

[2] = biological target: T2, Human TNFR2-His (Sino 10417-H08H) (human, UniProt P20333 23-257); assay: as above
T2 construct: Bought protein; also called recombinant human TNFR2 protein; not shown: His tag
T2 sequence (looked up): T1 sequence with G16S, P36S, Q117P, H164N, A210E, G216S, V223M
Protocol: as §1

[3] = biological target: T3, human TNFR2 (Novoprotein, Cat #C830) (human, UniProt P20333 23-257, limits assumed); assay: competition ELISA, competitor human TNFα-Biotin; area under the OD curve
T3 construct: construct not described; also called human TNFR2 protein
T3 sequence (looked up): T1 sequence with G16S, P36S, Q117P, H164N, A210E, G216S, V223M
Protocol: (§2) 1 μg/ml human TNFR2 (Novoprotein, Cat #C830) was pre-coated with 100 μl/well […] in an ELISA plate. All the test TNFR2 antibodies were subjected to 2.5-fold gradient dilution from the highest concentration of 30 μg/ml; the diluted antibodies were mixed with 15 ng/ml human TNFα-Biotin (Acro Biosystem, Cat #TNA-H82E3) in equal volume, respectively; the resulting mixture was added to the ELISA plate at 100 μl/well, and incubated with shaking at room temperature for 2.0 hours. The plate was washed, and then a Streptavidin-HRP working solution (diluted at 1:10000) was added at 100 μl/well, and the mixture was incubated with shaking at room temperature for 40 minutes. The plate was washed again, and then the substrate TMB of HRP was added to develop colour. A stop solution was added to stop the reaction, and then a microplate reader (MD 13) was used to read the absorbance value. The inhibitory curve of an antibody was drawn with antibody concentration as the abscissa and corresponding OD value as the ordinate, and fitted with four parameters (GraphPad Prism9) to calculate the IC50 value. The smaller the IC50 value, the stronger the ability of an antibody to inhibit the binding of human TNFα to human TNFR2. The blocking effect of a humanized antibody was normalized to its corresponding human-murine chimeric antibody WT. The higher the percentage value, the better the inhibitory effect of the humanized antibody.

[4] = biological target: T3, human TNFR2 (Novoprotein, Cat #C830); assay: competition ELISA, human TNFR2 coated, competitor human TNFα-Biotin
Protocol: as §2

Binder | Kd [1] [nM] | koff [1] [s⁻¹] | kon [1] [M⁻¹ s⁻¹] | Kd [2] [nM] | koff [2] [s⁻¹] | kon [2] [M⁻¹ s⁻¹] | AUC [3] | IC50 [4] [µg/mL]
B1 | 0.897 | 0.000409 | 456000 | 2.33 | 0.000405 | 174000 | – | –
B2 | 1.14 | 0.000562 | 492000 | 0.554 | 0.000192 | 346000 | – | –
B3 | 0.723 | 0.000399 | 552000 | 0.362 | 0.000146 | 403000 | 8.16 | 0.545
B4 | 0.681 | 0.000412 | 605000 | 0.34 | 0.000151 | 443000 | 7.82 | 0.472
B5 | 0.626 | 0.000381 | 608000 | 0.309 | 0.000137 | 445000 | 7.96 | 0.578
B6 | 0.532 | 0.000332 | 623000 | 0.354 | 0.000153 | 433000 | 7.92 | 0.49
B7 | 0.576 | 0.000389 | 675000 | 0.318 | 0.000154 | 484000 | 7.66 | 0.606
B8 | 0.252 | 0.000154 | 614000 | 0.235 | 0.000121 | 512000 | – | –
B9 | 0.475 | 0.000175 | 369000 | 0.416 | 0.000115 | 277000 | 8.02 | 0.656
B10 | 0.47 | 0.00016 | 340000 | 0.371 | 0.000108 | 291000 | 7.63 | 0.573
B11 | 0.43 | 0.000155 | 361000 | 0.375 | 9.91e-05 | 265000 | 7.87 | 0.597
B12 | 0.473 | 0.000167 | 354000 | 0.417 | 0.000113 | 270000 | 7.86 | 0.59
B13 | 0.599 | 0.000164 | 273000 | 0.496 | 0.000107 | 215000 | 8.1 | 0.78
